Among the data in patent CN116507641A (XINSHI BIOPHARMACEUTICAL CO LTD, dated 2023) are EC50, binding result and Kd values, retold here.

The target of assay [1] is T1, 大鼠结合素-4 (rat Nectin-4) (rat, UniProt Q8R007 31-508 (mouse entry)).
T1 construct: Transiently expressed on 293T cells; also called NP_001102546.1
T1 chain: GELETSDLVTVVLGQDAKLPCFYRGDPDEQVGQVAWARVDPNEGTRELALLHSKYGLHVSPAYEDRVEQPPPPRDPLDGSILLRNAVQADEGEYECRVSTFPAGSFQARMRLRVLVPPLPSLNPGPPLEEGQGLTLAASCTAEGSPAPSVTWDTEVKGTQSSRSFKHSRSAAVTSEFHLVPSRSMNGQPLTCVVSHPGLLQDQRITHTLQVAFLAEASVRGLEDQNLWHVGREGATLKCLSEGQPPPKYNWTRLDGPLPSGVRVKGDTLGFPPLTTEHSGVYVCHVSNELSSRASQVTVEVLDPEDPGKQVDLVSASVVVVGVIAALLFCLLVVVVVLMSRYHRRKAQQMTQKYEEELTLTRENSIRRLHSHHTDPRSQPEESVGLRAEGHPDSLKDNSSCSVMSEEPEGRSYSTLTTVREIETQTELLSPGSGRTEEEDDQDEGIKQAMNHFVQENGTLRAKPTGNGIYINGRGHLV
The assay is described as follows: flow cytometry on transiently transfected 293T cells; + = EC50 25nM to 133nM.

For assay [2], the target named is T2, 食蟹猴结合素-4 (cynomolgus Nectin-4) (cynomolgus monkey, UniProt Q96NY8 32-510 (human entry)).
T2 construct: Transiently expressed on 293T cells; also called XP_005541277.1
T2 chain: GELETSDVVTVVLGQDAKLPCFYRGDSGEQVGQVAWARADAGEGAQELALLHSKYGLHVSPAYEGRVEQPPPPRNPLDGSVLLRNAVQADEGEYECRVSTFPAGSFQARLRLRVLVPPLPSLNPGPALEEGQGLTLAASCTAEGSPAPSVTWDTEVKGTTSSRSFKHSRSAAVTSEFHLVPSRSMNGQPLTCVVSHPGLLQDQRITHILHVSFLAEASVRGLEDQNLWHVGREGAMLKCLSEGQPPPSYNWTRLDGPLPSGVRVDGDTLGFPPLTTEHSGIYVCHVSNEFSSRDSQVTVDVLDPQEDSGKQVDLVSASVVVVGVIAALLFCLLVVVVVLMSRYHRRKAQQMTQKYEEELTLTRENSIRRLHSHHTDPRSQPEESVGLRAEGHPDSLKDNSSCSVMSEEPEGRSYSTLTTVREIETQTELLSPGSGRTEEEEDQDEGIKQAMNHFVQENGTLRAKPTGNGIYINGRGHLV
The assay is described as follows: flow cytometry on transiently transfected 293T cells; +++ = EC50 below 5nM.

In assay [3] the target is T1, 大鼠结合素-4 (rat Nectin-4). The assay is described as follows: flow cytometry on transiently transfected 293T cells; ++ = EC50 5nM to 25nM.
Assay [4] concerns the target T3, 小鼠结合素-4 (mouse Nectin-4) (mouse, UniProt Q8R007 31-508).
T3 construct: Transiently expressed on 293T cells; also called NP_082169.2
T3 sequence: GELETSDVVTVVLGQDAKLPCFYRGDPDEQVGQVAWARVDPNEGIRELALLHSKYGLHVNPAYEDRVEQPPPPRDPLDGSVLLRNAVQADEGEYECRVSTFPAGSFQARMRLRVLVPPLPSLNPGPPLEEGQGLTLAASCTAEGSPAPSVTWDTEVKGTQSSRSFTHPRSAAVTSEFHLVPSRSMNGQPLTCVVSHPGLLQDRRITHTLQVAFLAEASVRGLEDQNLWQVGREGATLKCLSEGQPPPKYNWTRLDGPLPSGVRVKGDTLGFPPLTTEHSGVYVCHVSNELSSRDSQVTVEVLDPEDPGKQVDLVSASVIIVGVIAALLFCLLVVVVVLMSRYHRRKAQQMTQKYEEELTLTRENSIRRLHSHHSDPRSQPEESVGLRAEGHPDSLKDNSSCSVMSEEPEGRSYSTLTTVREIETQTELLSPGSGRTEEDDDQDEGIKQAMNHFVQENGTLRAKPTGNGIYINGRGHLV
The description is as above.

The target of assay [5] is T3, 小鼠结合素-4 (mouse Nectin-4). The assay is described as follows: flow cytometry on transiently transfected 293T cells; + = EC50 25nM to 133nM.
The target in assay [6] is T1, 大鼠结合素-4 (rat Nectin-4). The assay is described as follows: flow cytometry on transiently transfected 293T cells; +++ = EC50 below 5nM.
Assay [7] deals with T4, 人结合素-2 (recombinant human Nectin-2; ACROBiosystems PV2-H52E2) (human, UniProt Q92692 32-360).
T4 construct: extracellular domain
T4 sequence (looked up): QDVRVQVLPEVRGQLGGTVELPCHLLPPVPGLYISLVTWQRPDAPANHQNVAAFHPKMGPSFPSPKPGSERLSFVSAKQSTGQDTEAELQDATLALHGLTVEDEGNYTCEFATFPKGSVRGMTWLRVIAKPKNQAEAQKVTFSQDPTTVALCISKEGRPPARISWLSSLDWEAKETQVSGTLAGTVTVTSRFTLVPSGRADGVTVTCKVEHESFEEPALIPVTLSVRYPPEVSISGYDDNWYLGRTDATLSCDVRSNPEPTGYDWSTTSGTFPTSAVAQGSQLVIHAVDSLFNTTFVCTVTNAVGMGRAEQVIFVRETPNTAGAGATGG
The assay is described as follows: ELISA or Gator binding assay.

The target of assay [8] is T5, 人结合素-4变体 ΔV结构域 (human Nectin-4 lacking amino acids 32-147) (human, UniProt Q96NY8 148-510).
T5 construct: Transiently expressed on 293T cells; also called 缺少Ig样V型结构域的变体
T5 sequence: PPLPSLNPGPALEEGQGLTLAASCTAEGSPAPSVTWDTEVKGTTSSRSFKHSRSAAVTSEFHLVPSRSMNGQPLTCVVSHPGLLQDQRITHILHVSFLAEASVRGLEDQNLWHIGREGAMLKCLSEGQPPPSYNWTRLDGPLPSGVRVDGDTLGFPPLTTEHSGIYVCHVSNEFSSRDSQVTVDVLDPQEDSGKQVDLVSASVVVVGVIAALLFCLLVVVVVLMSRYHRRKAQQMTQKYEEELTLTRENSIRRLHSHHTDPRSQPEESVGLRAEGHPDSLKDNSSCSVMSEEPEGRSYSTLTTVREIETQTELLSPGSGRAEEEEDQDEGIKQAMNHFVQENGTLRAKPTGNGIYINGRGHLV
The assay is described as follows: flow cytometry on transiently transfected 293T cells.

The target of assay [9] is T6, 重组人结合素4-His蛋白 (recombinant human Nectin-4-His) (human, UniProt Q96NY8 32-349).
T6 construct: Analyte in SPR; also called 人重组结合素-4; not shown: His tag
T6 sequence: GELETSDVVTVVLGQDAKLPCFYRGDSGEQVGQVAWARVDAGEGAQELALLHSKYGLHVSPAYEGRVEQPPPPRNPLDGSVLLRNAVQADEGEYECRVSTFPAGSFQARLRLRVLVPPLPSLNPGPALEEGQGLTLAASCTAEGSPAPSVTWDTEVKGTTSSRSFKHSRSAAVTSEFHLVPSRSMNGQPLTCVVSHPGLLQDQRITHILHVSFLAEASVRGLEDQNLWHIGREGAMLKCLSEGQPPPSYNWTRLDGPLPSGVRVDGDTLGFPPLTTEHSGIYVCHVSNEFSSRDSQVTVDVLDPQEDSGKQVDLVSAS
The assay is described as follows: SPR (BIAcore 3000), antibody captured by anti-human IgG on CM5, Nectin-4-His as analyte, 1:1 binding with mass transfer.

Assay [10] addresses T7, 人重组结合素-4蛋白 (recombinant human Nectin-4, extracellular domain) (human, UniProt Q96NY8 32-349).
T7 construct: Protein coated on the ELISA plate; May be the same protein as the Nectin-4-His used in SPR; also called 重组结合素-4(细胞外结构域); 人结合素-4蛋白
T7 sequence: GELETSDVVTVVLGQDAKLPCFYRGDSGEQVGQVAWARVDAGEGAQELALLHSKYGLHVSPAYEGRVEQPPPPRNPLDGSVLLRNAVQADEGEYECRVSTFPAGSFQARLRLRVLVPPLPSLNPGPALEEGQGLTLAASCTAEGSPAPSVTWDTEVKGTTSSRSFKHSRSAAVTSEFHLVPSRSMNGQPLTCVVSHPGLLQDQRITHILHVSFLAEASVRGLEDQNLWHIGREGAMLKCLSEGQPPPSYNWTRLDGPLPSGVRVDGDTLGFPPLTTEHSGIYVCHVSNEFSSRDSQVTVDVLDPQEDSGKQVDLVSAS
The assay is described as follows: ELISA, recombinant human Nectin-4 coated on plate.

B1: N4_mAb 3 (antibody, V domains shown)
VH: EVQLQQSGAELVKPGASVKLSCTVSGFNIKDTYMHWVKQRPEQGLEWIGRIDPANGNTKYDPKFQGKATIIADKASNTAYLQLSSLTSEDAAVYYCAHYYGSSYFAMDCWGQGTSVTVSS
VL: DIVMTQSHKFMSTSVGDRVSITCKASQDVSTAVAWYQQKPGQSPKLLIYWASTRHTGVPDRFTGSGSGTDYTLTISSVQTEDLALYYCQQHYSTPLTFGAGTKLELK
B1: the results for the EC50 in assay [1] and in [2] were 25 to 133 nM and less than 5 nM, respectively.

B2: N4_mAb 4 (antibody, V domains shown)
VH: DVQLQESGPDLVKPSQSLSLTCTVTGYSITSAYNWHWIRQFPGNKLEWMGYIHYSGRTNYNPSLKSRISITRDTSKNQFFLQLNSLTTEDTATYYCARWITTATGWYLDVWGAGTTVTVSS
VL: not shown
Regarding B2, the half-maximal effective concentration (EC50) in [1] was 25 to 133 nM; in assay [2], less than 5 nM.

B3: N4_mAb 1 (antibody, V domains shown)
VH: QVQLKQSGPGLVQPSQSLSITCTVSGFSLTNYGVNWVRQPPGKGLEWLGVIWSGGSTDYNAAFISRLSISKDISKSQVFFKMNSLQADDTAKYYCAREGYDGYAMDYWGQGTSVTVSS
VL: DIQMTQSPASLSVSVGETVTITCRASENIFSSLAWYQQKQGKSPQLLVYGATNLADGVPSRFSGSGSGTQYSLKINSLQSEDFGTYWCQHFWGNPWTFGGGTKLEIK
Molecule B3 showed an EC50 in [2] of less than 5 nM.

B4: N4_mAb 2 (antibody, V domains shown)
VH: QVQLKQSGPNLVQPSQSLSITCTVSGFSLTTYGAHWVRQSPGKGLEWLGVIWRGGSTDYNAAFMSRLSITKDNSKSQVFFKMNSLQADDTAIYYCAKIGYDGYAMDNWGQGTSVTVSS
VL: DFQVTQSPASLSASVGETVTITCRTSENIHNYLAWYQQKQGKSPQLLVYNAKTLADGVPSRFSGSGSGTQYSLKINSLQPEDFGTYYCQHFWSSPWTFGGGTKLEIK
Turning to B4, the figures for the EC50 in [2], in assay [3] and in [4] were less than 5 nM, 5 to 25 nM and 5 to 25 nM, respectively.

B5: N4_mAb 5 (antibody, V domains shown)
VH: EVQLQQSGPDLVKPGASVKISCKASGYSFTGHYMHWVKQSHGKSLEWIGRVNPNNGGSSYNQKFKDKAILTVDKSSTTAYMELRSLTSEDSAVYYCARDPLGGSYGFAYWGQGTLVTVSA
VL: DIVLTQSPASLAVSLGQRATISCRASQSVTTSSYSYMHWYQQKPGQPPKLLIKYASNLESGVPARFSGSGSGTDFTLNIHPVEEEDTATYYCQHSWEIPYTFGGGTKLEMK
Turning to B5, the EC50 in assay [5] is 25 to 133 nM; in assay [2] it was less than 5 nM; in assay [6], less than 5 nM.

B6: N4_mAb 6 (antibody, V domains shown)
VH: QVQLQQSGPELVKPGASVRISCKASGYTFTTYYIHWVKQRPGQGLEWIGWIYPGNVNTKYTENFKDKATLTADKSSSTAYMQLSSLTSEDSAVYFCARGLYYFDFWGQGTTLTVSS
VL: SIVMTQTPKFLLVSAGDRVTITCKASQSVNNDVAWYQQKPGQSPKLLIYYASNRDTGVPDRFTGSGFGTDFTFTISSVQAEDLAVYFCQQDYSSPYTFGGGTKLEIK
notes: Murine variable regions
B6: the binding result was “no binding” in assay [7] and “no binding (tested: 最高测试的抗体浓度(133nM))” in assay [8]. Further, the concentration for a half-maximal effect (EC50) was less than 5 nM in [2], less than 5 nM in assay [6], 0.03 nM in [10] and 5 to 25 nM in [4]. Also, the Kd in [9] amounted to 0.392 nM.

B7: N4_mAb 8 (antibody, V domains shown)
VH: QVQLQQSGPVLVKPGASVRISCKASGYTFTSYYIHWVKQRPGQGLEWIGWIYPGNVNTKYNENFRDKATLTADKSSSTSYMQLSSLTSEDSAVYFCARGIYYFDYWGQGTTLTVSS
VL: IIVMTQTPKFLLVSAGDRVTITCKASQSVNNDVAWYQEKPGQSPKLLIYYASNRDTGVPDRFTGSGYGTDFTFTISTVQAEDLAVYFCHQDYSSPFTFGSGTKLEIK
notes: Murine variable regions
B7: the figures for the binding result in [7] and in assay [8] were “no binding” and “no binding (tested: 最高测试的抗体浓度(133nM))”, respectively. The EC50 is less than 5 nM in assay [2], less than 5 nM in assay [6], 0.14 nM in [10] and 5 to 25 nM in [4]. In addition, in assay [9], the Kd worked out at 0.375 nM.

B8: N4_mAb 7 (antibody, V domains shown)
VH: QVQLQQSGPELVKPGASVKMSCKASGYTFTTYYIHWVKQRPGQGLEWIGWIYPGNAGIKSNEKFKGKTTLTADKSSSTAYMLLSSLTSEDSAIYFCARGVYFFDYWGQGTTLTVSS
VL: SIVMTQTPKFLLVSAGDRVTITCKASQSVNNDVSWFQQKPGQSPKLLIYYASNRYTGVPDRFSGSGYGTDFTFTITTVQAEDLAVYFCQQDYSSPYTFGGGTKLEIK
notes: Murine variable regions
Take B8: the binding result in assay [7] was “no binding”; in assay [8] it was “no binding (tested: 最高测试的抗体浓度(133nM))”. The EC50 is less than 5 nM in assay [2], less than 5 nM in assay [6], 0.04 nM in assay [10] and 5 to 25 nM in assay [4]. Moreover, the dissociation constant (Kd) in assay [9] came out at 0.39 nM.
